In patent US20190367612A1 (Daiichi Sankyo, published 2019):

What was measured:
[1] = target: T1, cynomolgus monkey CD3 (cynomolgus monkey, UniProt Q95LI5 22-198); assay: flow cytometry on cynomolgus monkey PBMC, Penta-His Alexa Fluor 488 detection, rMFI = MFI minus sample without antibody
T1 construct: whole, on cells; CD3 complex on cynomolgus monkey PBMC; also called cynomolgus monkey CD3 (PBMC); cynomolgus monkey CD3-expressing cells

[2] = target: T2, human CD3 (human, UniProt P07766 23-207); assay: flow cytometry on human PBMC (dead and CD19-positive cells excluded), Penta-His Alexa Fluor 488 detection, rMFI = MFI minus sample without antibody
T2 construct: CD3 complex on human PBMC; also called human CD3 (PBMC); human CD3-expressing cells
T2 sequence (P07766 23-207 limits assumed): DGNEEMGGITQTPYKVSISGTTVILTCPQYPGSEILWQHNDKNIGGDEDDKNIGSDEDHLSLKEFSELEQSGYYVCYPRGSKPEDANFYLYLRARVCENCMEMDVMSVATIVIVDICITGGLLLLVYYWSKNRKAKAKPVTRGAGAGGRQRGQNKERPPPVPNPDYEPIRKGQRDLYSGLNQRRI
Experimental: Commercially available human PBMC (Cellular Technology Limited) was adjusted to an appropriate concentration with PBS containing 5% FBS. LIVE/DEAD Fixable Near-IR Dead Cell Stain Kit (Thermo Fisher Scientific Inc.) and an anti-CD19 antibody (Beckman Coulter Inc.) were added to the cells, which were then left standing at 4° C. for 30 minutes. The cells were washed twice with PBS containing 5% FBS, then adjusted to a concentration of 1×10⁶ cells/mL with PBS containing 5% FBS, inoculated in an amount of 100 μL/well to a 96-well U-bottomed microplate, and centrifuged to remove a supernatant. Each anti-GPRC5D-anti-CD3 bispecific molecule (C2037-C3E7034 to C3022-C3E7036 prepared in Example 12) diluted with PBS containing 5% FBS were added thereto in an amount of 100 μL/well, and the plate was left standing at 4° C. for 60 minutes. The cells were washed twice with PBS containing 5% FBS. Then, Penta-His Alexa Fluor 488 (Qiagen N.V.) diluted with PBS containing 5% FBS was added thereto in an amount of 30 μL/well, and the plate was left standing at 4° C. for 30 minutes. […] The data was analyzed using Flowjo (Tree Star, Inc.). The mean fluorescence intensity (MFI) of Alexa Fluor 488 in a fraction free from dead cells and CD19-positive cells was calculated. […]

[3] = target: T3, human GPRC5D (human, UniProt Q9NZD1 1-345); assay: flow cytometry on A4/Fuk cells (endogenous human GPRC5D), Penta-His Alexa Fluor 488 detection, rMFI = MFI minus sample without antibody
T3 construct: whole, on cells; also called hGPRC5D; G-protein coupled receptor family C group 5 member D
Experimental: Lymphoma cell line A4/Fuk cells (JCRB Cell Bank) were adjusted to an appropriate concentration with PBS containing 5% FBS. LIVE/DEAD Fixable Near-IR Dead Cell Stain Kit was added to the cells, which were then left standing at 4° C. for 30 minutes. The cells were washed twice with PBS containing 5% FBS, then adjusted to a concentration of 1×10⁶ cells/mL with PBS containing 5% FBS, inoculated in an amount of 100 μL/well to a 96-well U-bottomed microplate, and centrifuged to remove a supernatant. Each anti-GPRC5D-anti-CD3 bispecific molecule (C2037-C3E7034 to C3022-C3E7036 prepared in Example 12) diluted with PBS containing 5% FBS were added thereto in an amount of 100 μL/well, and the plate was left standing at 4° C. for 60 minutes. The cells were washed twice with PBS containing 5% FBS. Then, Penta-His Alexa Fluor 488 diluted with PBS containing 5% FBS was added thereto in an amount of 30 μL/well, and the plate was left standing at 4° C. for 30 minutes. The cells were washed twice with PBS containing 5% FBS and then resuspended in PBS containing 5% FBS, followed by detection using a flow cytometer (FACSCanto™ II). The data was analyzed using Flowjo. The mean fluorescence intensity (MFI) of Alexa Fluor 488 in a fraction free from dead cells was calculated. The MFI value of the antibody-unsupplemented sample was subtracted from the MFI value of the antibody-supplemented sample to calculate a relative value of MFI (rMFI).

[4] = target: T3, human GPRC5D; assay: flow cytometry, KMS-34 cells
[5] = target: T3, human GPRC5D; assay: flow cytometry, KHM-1B cells
Experimental: Human multiple myeloma cell line KHM-1B cells (JCRB Cell Bank) expressing GPRC5D were adjusted to a concentration of 5×10⁶ cells/mL with PBS containing 5% FBS, inoculated in an amount of 100 μL/well to a 96-well U-bottomed microplate, and centrifuged to remove a supernatant. Each rat anti-GPRC5D antibody (2A4, 2B1, and 7B4) adjusted to 0.32 ng/mL to 10 μg/mL in Example 1)-7 was added thereto in an amount of 100 μL/well, and the plate was left standing at 4° C. for 1 hour. The cells were washed twice with PBS containing 5% FBS. Then, PE Goat Anti-Rat Ab (Becton, Dickinson and Company) diluted 100-fold with PBS containing 5% FBS was added thereto at a concentration of 100 μL/well, and the plate was left standing at 4° C. for 1 hour. The cells were washed twice with PBS containing 5% FBS and then resuspended in PBS containing 5% FBS, followed by detection using a flow cytometer (FACSCanto™ II; Becton, Dickinson and Company). The data was analyzed using Flowjo (Tree Star, Inc.). The PE fluorescence intensity of the cell fraction was plotted to a histogram, and the mean fluorescence intensity (MFI) was calculated.

[6] = target: T4, human GPRC5D amino-terminal peptide MYKDCIESTGDYFLLCDAEGPWGIILE-K(Biotin)-NH2, having an intramolecular … (human, C-terminal lysine carrying biotin, C-terminal amide; intramolecularly formed disulfide bond); assay: ELISA, immobilised biotinylated peptide
T4 construct: Peptide Institute synthetic peptide; also called amino-terminal peptide of biotinylated human GPRC5D (disulfide bond present)
T4 peptide: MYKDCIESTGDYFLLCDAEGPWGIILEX
Text: (§1) Epitopes bound by the obtained rat anti-GPRC5D antibodies (2A4, 2B1, and 7B4) were identified using a human GPRC5D amino-terminal peptide […](Biotin)-NH₂ (Sigma-Aldrich Corp.) (SEQ ID NO: 1 of the Sequence Listing; FIG. 2) having a biotinylated carboxy-terminal peptide and lacking an intramolecularly formed disulfide bond, and a human GPRC5D amino-terminal peptide […]-K(Biotin)-NH₂ (Peptide Institute, Inc.) (SEQ ID NO: 2 of the Sequence Listing; FIG. 3) having a lysine-containing biotinylated carboxy terminus and having an intramolecularly formed disulfide bond. Each peptide diluted with PBS was added to Nunc Immobilizer (Thermo Fisher Scientific Inc.), and the plate was left standing at room temperature for 1 hour. After washing three times with PBST, […] containing 1% BSA was added thereto, and the plate was left standing at room temperature for 1 hour. After washing three times with PBST, each rat anti-GPRC5D antibody (2A4, 2B1, and 7B4) prepared in Example 1)-7 and diluted to 0.1 ng/mL to 1 μg/mL with PBS was added thereto, and the plate was left standing at room temperature for 1 hour. After washing three times with PBST, Anti-Rat IgG, HRP-Linked Whole Ab Goat (GE Healthcare Bio-Sciences Corp.) diluted 500-fold with PBS was added thereto, and the plate was left standing at room temperature for 1 hour. After washing three times with PBST, SuperSignal™ ELISA Pico Chemiluminescent Substrate (Thermo Fisher Scientific Inc.) was added thereto, and the luminescence was measured using a plate reader (ENVISION; PerkinElmer, Inc.).

[7] = target: T5, human GPRC5D amino-terminal peptide …(Biotin)-NH2, lacking an intramolecular disulfide bond (human, biotinylated carboxy terminus, C-terminal amide; no intramolecularly formed disulfide bond); assay: ELISA, immobilised biotinylated peptide
T5 construct: Sigma-Aldrich synthetic peptide; also called amino-terminal peptide of human GPRC5D (disulfide bond absent)
T5 peptide: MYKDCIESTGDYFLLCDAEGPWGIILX
Text: as §1

T1 sequence (Q95LI5 22-198): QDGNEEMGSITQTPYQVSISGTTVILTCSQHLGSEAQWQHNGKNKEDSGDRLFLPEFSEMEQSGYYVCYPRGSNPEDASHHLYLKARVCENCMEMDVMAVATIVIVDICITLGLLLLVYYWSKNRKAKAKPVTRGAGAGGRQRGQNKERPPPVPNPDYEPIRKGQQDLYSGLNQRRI

B1: anti-GPRC5D-anti-CD3 bispecific molecule C3022-C3E7034 (bispecific antibody)
scFv: GQVQLVQSGAEVKKPGASVKVSCKASGYTFTGYYMHWVRQAPGQGLEWMGRINPNSGGTNYAQKFQGRVTMTRDTSISTAYMELSGLRSDDTAVYYCASGSVRHPWGQGTLVTVSSGGGGSGGGGSGGGGSQPVLTQPPSASGTPGQRVTISCSGSRSNIGGNIVSWYQQFPGTAPRLLTYADNQRPSGVPDRFSGSKSGTSASLAISGLQSEDEADYYCAAWDDSLNGVVFGGGTKLTVLGGGGSEVQLVESGGGLVQPGGSLRLSCAASGVTFNYYGMSWIRQAPGKGLEWVASITNSGGRIYYPDSVKGRFTISRENTQKTLYLQMNSLRAEDTAVYYCTLDGRDGWVAYWGQGTLVTVSSGGGGSGGGGSGGGGSNFMLTQPHSVSESPGKTVTISCKRNTGNIGSNYVNWYQQHEGSSPTTIIYRDDKRPDGVSDRFSGSIDRSSKSASLTISNLKTEDEADYFCQSYSSGFIFGGGTKLTVLGAAAGAGGDYKDDDDKGAAAHHHHHH
notes: Tandem scFv
B1 was tested, and the “EC50 (read off the curve)” value [1] was ~20 nM, the “EC50 (read off the curve)” value [2] was ~0.3 nM and the binding result [3] was “binds”.

B2: anti-GPRC5D-anti-CD3 bispecific molecule C3048-C3E7034 (bispecific antibody)
scFv: GQVQLVQSGAEVKKPGSSVKVSCKASGGTFSRYAISWVRQAPGQGLEWMGGIIPIFGTANYAQKFQGRVTITADQSTRTAYMDLGRLRSEDTAVYYCALEGFRDSLKRNPFDIWGQGTMVTVSSGGGGSGGGGSGGGGSQSVVTQPPSVSAAPGQKVTISCSGGTTNIGSNYVSWYQQLPGTAPKFLMYENNKRPSGIPDRFSGSKSGTSATLAITGLQTGDEATYYCSTWDSSLNTGLFGGGTKLTVLGGGGSEVQLVESGGGLVQPGGSLRLSCAASGVTFNYYGMSWIRQAPGKGLEWVASITNSGGRIYYPDSVKGRFTISRENTQKTLYLQMNSLRAEDTAVYYCTLDGRDGWVAYWGQGTLVTVSSGGGGSGGGGSGGGGSNFMLTQPHSVSESPGKTVTISCKRNTGNIGSNYVNWYQQHEGSSPTTIIYRDDKRPDGVSDRFSGSIDRSSKSASLTISNLKTEDEADYFCQSYSSGFIFGGGTKLTVLGAAAGAGGDYKDDDDKGAAAHHHHHH
notes: Tandem scFv
In the case of B2, the “EC50 (read off the curve)” value [2] is reported as ~0.4 nM and the binding result [3] is reported as “binds”.

B3: rat anti-GPRC5D antibody 7B4 (antibody, V domains shown)
VH: EIHLQESGPGLVKPSQSLSLTCSVTGYTITSGYDWSWIRKFPGNKMEWMAYMSYRGSTNYNPSLKSRISITRDTSKNQFFLQLNSVTTEDTATYYCALTRTYWYNYYYVLDAWGQGASVTVSS
VL: DIQMTQSPSFLSASVGERVTLSCKASQNINKYLDWYQQKLGEPPKLLIYNTNNLHTGIPSRFSGSGSGTDYTLTISGLQPEDVATYFCLQRNSWYTFGAGTKLELK
notes: Rat IgG2b, kappa chain
For B3, the Kd [4] was 2.1 nM, the “MFI (max)” value [4] was 4470 and the Kd [5] was 1.3 nM. The “MFI (max)” value [5] was 2490, the binding result [6] was “no binding (tested: 0.1 ng/mL to 1 µg/mL)” and the binding result [7] was “no binding (tested: 0.1 ng/mL to 1 µg/mL)”.

B4: rat anti-GPRC5D antibody 2A4 (antibody, V domains shown)
VH: QVQLQQSGAELAKPGTSVKLSCKASGYTFTSYYIYWVKQRPGQGLEWIGYVYPGYGGTYYSDKFKGKATFTADTSSSTAYMLLGSLTPEDSAYYFCARRKGIIRGPGYFDYWGQGVMVTVSS
VL: DIQMTQSPASLSASLGETVSIECLASEGISNSLAWYQQKPGKSPQLLIYGASSLQDGVPSRFSGSGSGTQYSLKISGMQPEDEGLYYCQQGYKYPPTFGGGTKLELK
notes: Rat IgG2b, kappa chain
With B4 the Kd [4] was 1.4 nM, the “MFI (max)” value [4] was 2060 and the Kd [5] was 0.5 nM. The “MFI (max)” value [5] was 1150, the binding result [6] was “no binding (tested: 0.1 ng/mL to 1 µg/mL)” and the binding result [7] was “no binding (tested: 0.1 ng/mL to 1 µg/mL)”.
